Experimental findings from patent publication US20140309172 are described below.

Data set [1] concerns the target alpha-synuclein (wild-type, full-length human α-synuclein).
Data set [2] concerns the target T1, Ac-YVAD-AMC (model substrate, from Enzo, Inc.).
T1 chain: YVAD

B1: caspase-1 (ICE), purified, activated (protein)
chain: NPAMPTSSGSEGNVKLCSLEEAQRIWKQKSAEIYPIMDKSSRTRLALIICNEEFDSIPRRTGAEVDITGMTMLLQNLGYSVDVKKNLTASDMTTELEAFAHRPEHKTSDSTFLVFMSHGIREGICGKKHSEQVPDILQLNAIFNMLNTKNCPSLKDKPKVIIIQACRGDSPGVVWFKDSVGVSGNLSLPTTEEFEDDAIKKAHIEKDFIAFCSSTPDNVSWRHPTMGSVFIGRLIEHMQEYACSCDVEEIFRKVRFSFEQPDGRAQMPTTERVTLTRCFYLFPGH
Take B1: the “cleavage of alpha-synuclein in vitro (SDS-PAGE and western blotting with anti-synuclein antibody)” value in data set [1] is “Purified, activated caspase-1 does indeed cleave alpha-synuclein”. The “activity against a model substrate” value in data set [2] was found to be 110 µM/min/mg.
